Target: ERα-LBD (ligand binding domain of estrogen receptor α)
Test: other fluorescence titration; quenching of the endogenous fluorescence of ERα-LBD (0.2 μm, 600 μL) by microaddition of CTX solution; excitation 295 nm, slits 10 nm, 25°C

chlorotoxin (CTX), recombinant, cut from GST-CTX (from UniProt P45639 1-36) (peptide)
Ka: 3e+07 M⁻¹

Source: PMC6488122
